# Results reported in US20240182544A1.
# Where “and” joins values, the source holds several entries; their conditions need not be identical. Identical values can stand only once.
# Target: Death Receptor 5 (UniProt O14763)
# Test: cell-based or functional assay
Substance,"IC50 of cell killing (cell viability, CellTiter-Glo, 24 h), CAPAN-1 cells","IC50 of cell killing (cell viability, CellTiter-Glo, 24 h), Colo 205 cells","IC50 of cell killing (cell viability, CellTiter-Glo, 24 h), H2122 cells","IC50 of cell killing (cell viability, CellTiter-Glo, 24 h), H2228 cells","IC50 of cell killing (cell viability, CellTiter-Glo, 24 h), HT29 cells","IC50 of cell killing (cell viability, CellTiter-Glo, 24 h), HTC15 cells","IC50 of cell killing (cell viability, CellTiter-Glo, 24 h), MDA-BD231 cells","IC50 of cell killing (cell viability, CellTiter-Glo, 24 h), SW948 cells",also measured
Conatumumab Multabody (from UniProt P02792 91-175),0.002 µg/mL and 0.00087 nM,0.16 pM,0.00015 µg/mL and 6.4e-05 nM,0.031 µg/mL and 0.013 nM,0.0024 µg/mL and 0.001 nM,0.00053 µg/mL and 0.00023 nM,0.00071 µg/mL and 0.00031 nM,0.16 pM,–
Tigatuzumab Multabody (from UniProt P02792 1-175; P02792 1-175),0.0026 µg/mL and 0.0011 nM,0.00085 µg/mL and 0.00037 nM,0.00014 µg/mL and 5.9e-05 nM,0.015 µg/mL and 0.0067 nM,0.0084 µg/mL and 0.0037 nM,0.002 µg/mL and 0.00087 nM,0.00052 nM and 0.0012 µg/mL,0.00037 µg/mL and 0.00016 nM,"Fold-change of killing IC50, MB vs parental IgG, mass basis, CAPAN-1 cells: > 5000 fold; Fold-change of killing IC50, MB vs parental IgG, mass basis, Colo 205 cells: > 11800 fold; Fold-change of killing IC50, MB vs parental IgG, mass basis, H2122 cells: 2940 fold; Fold-change of killing IC50, MB vs parental IgG, mass basis, H2228 cells: > 651 fold; Fold-change of killing IC50, MB vs parental IgG, mass basis, HT29 cells: > 1190 fold; Fold-change of killing IC50, MB vs parental IgG, mass basis, HTC15 cells: > 5000 fold; Fold-change of killing IC50, MB vs parental IgG, mass basis, MDA-BD231 cells: > 8400 fold; Fold-change of killing IC50, MB vs parental IgG, mass basis, SW948 cells: > 27000 fold; Fold-change of killing IC50, MB vs parental IgG, molar basis, CAPAN-1 cells: > 59300 fold; Fold-change of killing IC50, MB vs parental IgG, molar basis, Colo 205 cells: > 181000 fold; Fold-change of killing IC50, MB vs parental IgG, molar basis, H2122 cells: 45600 fold; Fold-change of killing IC50, MB vs parental IgG, molar basis, H2228 cells: > 10000 fold; Fold-change of killing IC50, MB vs parental IgG, molar basis, HT29 cells: > 18300 fold; Fold-change of killing IC50, MB vs parental IgG, molar basis, HTC15 cells: > 77000 fold; Fold-change of killing IC50, MB vs parental IgG, molar basis, MDA-BD231 cells: > 129000 fold; Fold-change of killing IC50, MB vs parental IgG, molar basis, SW948 cells: > 416000 fold"
